From the supplement of paper PMC9732359
± gives the uncertainty stated by the source.

Experiment: protein stability index of a GFP-peptide fusion (yeast GPS) (PSI 1-4); higher = more stable; sorted into four equal gates, so the index is relative within each strain
Outline: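 For each peptide, the protein stability index sums the read frequency in every gate after multiplying it by the gate number. Read frequencies came from plasmids that were PCR-amplified from each gate and Illumina-sequenced, with reads assigned to strains by barcodes. The gates were four equal bins of GFP/Cherry fluorescence ratio applied to mid-log yeast in leucine-free medium carrying a pooled library of tiled 17-residue yeast protein peptides fused downstream of GFP on a Cherry-expressing plasmid.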

Sequence: EINAVFNELCDPESRTQ [POP1]
- protein stability index (doa10∆): 2.91 ± 0.079
- protein stability index (pdr5∆): 3.01 ± 0.069
- protein stability index (san1∆): 2.75 ± 0.092
- protein stability index (ubr1∆): 2.93 ± 0.064

Sequence: EIQEELERFNKRADISK [SMC1]
- protein stability index (ubr1∆): 3.23 ± 0.18

Sequence: EIRPEMLGHYLGEFSIT [RPS15]
- protein stability index (pdr5∆): 3.02 ± 0.08
- protein stability index (san1∆): 3.11 ± 0.19
- protein stability index (ubr1∆): 2.87 ± 0.17

Sequence: EISKKDFVRKGGLQKGK [SIR3]
- protein stability index (doa10∆): 2.38 ± 0.11
- protein stability index (pdr5∆): 1.91 ± 0.083
- protein stability index (san1∆): 1.98 ± 0.11
- protein stability index (ubr1∆): 1.95 ± 0.092

Sequence: EITGTSCLTFFQALDSE [ITC1]
- protein stability index (doa10∆): 2.46 ± 0.086
- protein stability index (pdr5∆): 2.78 ± 0.099
- protein stability index (san1∆): 2.42 ± 0.1
- protein stability index (ubr1∆): 1.82 ± 0.057

Sequence: EKAIPKDQRATTPYMTK [RPO26]
- protein stability index (doa10∆): 2.85 ± 0.043
- protein stability index (pdr5∆): 2.98 ± 0.047
- protein stability index (san1∆): 2.97 ± 0.046
- protein stability index (ubr1∆): 3.03 ± 0.044

Sequence: EKAKSAGTQSSKFSKQQ [RPL24A]
- protein stability index (doa10∆): 3.15 ± 0.064
- protein stability index (pdr5∆): 3.23 ± 0.076
- protein stability index (san1∆): 3.32 ± 0.047
- protein stability index (ubr1∆): 3.12 ± 0.067

Sequence: EKASRQQRKQKKNRDKK [RPS24A]
- protein stability index (doa10∆): 3.44 ± 0.094
- protein stability index (pdr5∆): 3.17 ± 0.075
- protein stability index (san1∆): 3.25 ± 0.044
- protein stability index (ubr1∆): 3.32 ± 0.083

Sequence: EKDCSLRAIEKNDDNSC [YIL149C/MLP2]
- protein stability index (doa10∆): 2.32 ± 0.1
- protein stability index (pdr5∆): 2.67 ± 0.077
- protein stability index (san1∆): 3.06 ± 0.082
- protein stability index (ubr1∆): 1.86 ± 0.11

Sequence: EKELQNEIKQLGSDSSD [SRB4]
- protein stability index (doa10∆): 2.95 ± 0.1
- protein stability index (pdr5∆): 2.81 ± 0.1
- protein stability index (san1∆): 2.27 ± 0.087
- protein stability index (ubr1∆): 2.85 ± 0.12

Sequence: EKESVEKQHENAVLELG [SMC3]
- protein stability index (doa10∆): 3.36 ± 0.2
- protein stability index (pdr5∆): 3.52 ± 0.13
- protein stability index (san1∆): 2.9 ± 0.1
- protein stability index (ubr1∆): 3.42 ± 0.073

Sequence: EKGKKVSGFKDEVLETV [RPS1B]
- protein stability index (doa10∆): 3.39 ± 0.11
- protein stability index (pdr5∆): 2.82 ± 0.11
- protein stability index (san1∆): 3.48 ± 0.11
- protein stability index (ubr1∆): 3.44 ± 0.084

Sequence: EKIKSKKINRRNETSVD [YCG1]
- protein stability index (doa10∆): 3.38 ± 0.094
- protein stability index (pdr5∆): 3.09 ± 0.085
- protein stability index (san1∆): 3.19 ± 0.08
- protein stability index (ubr1∆): 3.33 ± 0.069

Sequence: EKKDDNSSKPAFSFGAK [YJL041W/NSP1]
- protein stability index (doa10∆): 2.3 ± 0.054
- protein stability index (pdr5∆): 1.86 ± 0.039
- protein stability index (san1∆): 2.02 ± 0.06
- protein stability index (ubr1∆): 2.25 ± 0.037

Sequence: EKPAPVRTHMRNMIIVP [RPS15]
- protein stability index (doa10∆): 1.13 ± 0.064
- protein stability index (pdr5∆): 1.17 ± 0.081
- protein stability index (san1∆): 1.21 ± 0.19
- protein stability index (ubr1∆): 1.14 ± 0.095

Sequence: EKQTPNKKDKKKEEEEQ [RPN1]
- protein stability index (doa10∆): 3 ± 0.059
- protein stability index (pdr5∆): 2.98 ± 0.092
- protein stability index (san1∆): 3.01 ± 0.042
- protein stability index (ubr1∆): 3.16 ± 0.058

Sequence: EKRATSPLLESDSIEKI [PUP2]
- protein stability index (doa10∆): 3.12 ± 0.087
- protein stability index (pdr5∆): 3.07 ± 0.077
- protein stability index (san1∆): 3.29 ± 0.09
- protein stability index (ubr1∆): 3.23 ± 0.068

Sequence: EKVFTQGLNILEWLENP [FAS1]
- protein stability index (doa10∆): 3.18 ± 0.12
- protein stability index (pdr5∆): 2.98 ± 0.081
- protein stability index (san1∆): 3.44 ± 0.054
- protein stability index (ubr1∆): 3.17 ± 0.046

Sequence: EKVNNNATLTPNDSNDE [SWI1]
- protein stability index (doa10∆): 3.26 ± 0.07
- protein stability index (pdr5∆): 3.14 ± 0.057
- protein stability index (san1∆): 3.11 ± 0.063
- protein stability index (ubr1∆): 3.16 ± 0.047

Sequence: EKVTRYNRHKLQELIVN [RPO31]
- protein stability index (doa10∆): 1.74 ± 0.046
- protein stability index (pdr5∆): 1.44 ± 0.043
- protein stability index (san1∆): 1.82 ± 0.058
- protein stability index (ubr1∆): 1.44 ± 0.041

Sequence: EKYEDEDEEKILDNTEN [DSN1]
- protein stability index (doa10∆): 3.52 ± 0.15
- protein stability index (pdr5∆): 3.16 ± 0.1
- protein stability index (san1∆): 3.01 ± 0.26
- protein stability index (ubr1∆): 3.21 ± 0.091

Sequence: EKYGKQVYDLLKRFPKM [BRR2]
- protein stability index (san1∆): 2.99 ± 0.19
- protein stability index (ubr1∆): 3.31 ± 0.14

Sequence: ELAINLIRFDESITKAM [SMC2]
- protein stability index (doa10∆): 2.59 ± 0.062
- protein stability index (pdr5∆): 2.78 ± 0.08
- protein stability index (san1∆): 2.62 ± 0.09
- protein stability index (ubr1∆): 2.65 ± 0.071

Sequence: ELDEHTTQIDLFRIFSM [BRR2]
- protein stability index (doa10∆): 2.25 ± 0.1
- protein stability index (pdr5∆): 1.56 ± 0.1
- protein stability index (san1∆): 1.61 ± 0.15
- protein stability index (ubr1∆): 1.22 ± 0.059

Sequence: ELGEKKNEKLKFQETLL [ISW2]
- protein stability index (doa10∆): 2.86 ± 0.096
- protein stability index (pdr5∆): 2.7 ± 0.1
- protein stability index (san1∆): 2.85 ± 0.11
- protein stability index (ubr1∆): 2.88 ± 0.12

Sequence: ELKDLETQVEVEKNEIG [NNF1]
- protein stability index (doa10∆): 3.05 ± 0.19
- protein stability index (pdr5∆): 3.24 ± 0.11
- protein stability index (san1∆): 2.97 ± 0.17
- protein stability index (ubr1∆): 3.33 ± 0.13

Sequence: ELKINLPLTEHKSPNLS [SRB4]
- protein stability index (doa10∆): 2.93 ± 0.077
- protein stability index (pdr5∆): 3.17 ± 0.051
- protein stability index (san1∆): 2.87 ± 0.041
- protein stability index (ubr1∆): 2.98 ± 0.058

Sequence: ELKIRSKTENVRRLEAQ [RPT6]
- protein stability index (doa10∆): 2.5 ± 0.16
- protein stability index (pdr5∆): 2.53 ± 0.12
- protein stability index (san1∆): 1.58 ± 0.27
- protein stability index (ubr1∆): 2.53 ± 0.095

Sequence: ELKPVSLDNKTLDDLVT [YJL041W/NSP1]
- protein stability index (doa10∆): 3.12 ± 0.057
- protein stability index (pdr5∆): 3.04 ± 0.063
- protein stability index (san1∆): 3.09 ± 0.067
- protein stability index (ubr1∆): 3.19 ± 0.042

Sequence: ELLAYQFASPVRWIETQ [FAS2]
- protein stability index (doa10∆): 1.77 ± 0.021
- protein stability index (pdr5∆): 1.86 ± 0.019
- protein stability index (san1∆): 1.92 ± 0.027
- protein stability index (ubr1∆): 1.728 ± 0.016

Sequence: ELLEERFQDSNPYVRTK [YCS4]
- protein stability index (doa10∆): 1.48 ± 0.037
- protein stability index (pdr5∆): 1.76 ± 0.11
- protein stability index (san1∆): 2.82 ± 0.076
- protein stability index (ubr1∆): 2.8 ± 0.096

Sequence: ELLRLANEQLKLFNRIV [CSN12]
- protein stability index (doa10∆): 2.3 ± 0.069
- protein stability index (pdr5∆): 2.55 ± 0.082
- protein stability index (san1∆): 1.64 ± 0.085
- protein stability index (ubr1∆): 1.92 ± 0.07

Sequence: ELLSKYKEQIIQGFYWA [SNU114]
- protein stability index (doa10∆): 2.99 ± 0.073
- protein stability index (pdr5∆): 2.4 ± 0.067
- protein stability index (san1∆): 2.47 ± 0.077
- protein stability index (ubr1∆): 2.17 ± 0.085

Sequence: ELMKLDGTEYVLSSVRE [MED6]
- protein stability index (doa10∆): 3.36 ± 0.083
- protein stability index (pdr5∆): 3.27 ± 0.08
- protein stability index (san1∆): 3.16 ± 0.048
- protein stability index (ubr1∆): 3.15 ± 0.05

Sequence: ELPKKLLNLPPFQVSSF [SRB8]
- protein stability index (doa10∆): 1.77 ± 0.039
- protein stability index (pdr5∆): 1.85 ± 0.034
- protein stability index (san1∆): 1.9 ± 0.055
- protein stability index (ubr1∆): 1.78 ± 0.041

Sequence: ELRFPSPTPIQRITIPN [PRP28]
- protein stability index (doa10∆): 2.02 ± 0.093
- protein stability index (pdr5∆): 2.19 ± 0.071
- protein stability index (san1∆): 1.85 ± 0.081
- protein stability index (ubr1∆): 2.06 ± 0.058

Sequence: ELSRIENEVENINATNT [YCS4]
- protein stability index (doa10∆): 3.52 ± 0.16
- protein stability index (pdr5∆): 3.11 ± 0.11
- protein stability index (san1∆): 3.23 ± 0.053
- protein stability index (ubr1∆): 3.14 ± 0.11

Sequence: ELTAQGYDPALLNILSG [RPN2]
- protein stability index (doa10∆): 2.76 ± 0.091
- protein stability index (pdr5∆): 3.06 ± 0.12
- protein stability index (san1∆): 2.58 ± 0.071
- protein stability index (ubr1∆): 2.89 ± 0.079

Sequence: ELVTISWVQPRIISGDQ [RPN9]
- protein stability index (doa10∆): 2.44 ± 0.12
- protein stability index (pdr5∆): 1.96 ± 0.087
- protein stability index (san1∆): 2.27 ± 0.12
- protein stability index (ubr1∆): 2.98 ± 0.1

Sequence: EMGYLIQISKLHYTPIE [RPC82]
- protein stability index (doa10∆): 1.51 ± 0.063
- protein stability index (pdr5∆): 2.06 ± 0.081
- protein stability index (san1∆): 1.95 ± 0.13
- protein stability index (ubr1∆): 1.47 ± 0.055

Sequence: EMKTQAAELQEKPLTPL [SNF6]
- protein stability index (doa10∆): 2.97 ± 0.19
- protein stability index (pdr5∆): 3.14 ± 0.12
- protein stability index (san1∆): 2.8 ± 0.088
- protein stability index (ubr1∆): 2.89 ± 0.087

Sequence: EMMKMMQDPQMQQMAKQ [SRP54]
- protein stability index (doa10∆): 3.07 ± 0.057
- protein stability index (pdr5∆): 2.76 ± 0.067
- protein stability index (san1∆): 2.77 ± 0.039
- protein stability index (ubr1∆): 2.67 ± 0.038

Sequence: ENAYDNPLADAEEALEP [PRE4]
- protein stability index (doa10∆): 3.1 ± 0.086
- protein stability index (pdr5∆): 3 ± 0.082
- protein stability index (san1∆): 3.1 ± 0.063
- protein stability index (ubr1∆): 3.13 ± 0.057

Sequence: ENDHERGFFHLNEALLQ [CSN12]
- protein stability index (doa10∆): 3.08 ± 0.075
- protein stability index (pdr5∆): 2.91 ± 0.062
- protein stability index (san1∆): 3.28 ± 0.09
- protein stability index (ubr1∆): 3.06 ± 0.082

Sequence: ENDLSFALMRYYDRKEE [RRI2]
- protein stability index (doa10∆): 3.12 ± 0.13
- protein stability index (pdr5∆): 2.88 ± 0.12
- protein stability index (san1∆): 2.97 ± 0.071
- protein stability index (ubr1∆): 2.98 ± 0.073

Sequence: ENEMIKPMNKGQHKNNT [SWP82]
- protein stability index (doa10∆): 3.36 ± 0.081
- protein stability index (pdr5∆): 3.19 ± 0.12
- protein stability index (san1∆): 3.33 ± 0.09
- protein stability index (ubr1∆): 3.26 ± 0.049

Sequence: ENFLKEVFQLRIFVKEI [GAL11]
- protein stability index (doa10∆): 1.81 ± 0.073
- protein stability index (pdr5∆): 1.69 ± 0.058
- protein stability index (san1∆): 1.95 ± 0.063
- protein stability index (ubr1∆): 1.52 ± 0.057

Sequence: ENGDYAACEKLLPPIKI [RPN12]
- protein stability index (san1∆): 1.89 ± 0.21

Sequence: ENGLQLSDNAKTLHSQM [RPC34]
- protein stability index (doa10∆): 3.11 ± 0.18
- protein stability index (pdr5∆): 3.27 ± 0.096
- protein stability index (san1∆): 3.27 ± 0.07
- protein stability index (ubr1∆): 3.13 ± 0.053

Sequence: ENGRRINELTLLVQKRF [RPS3]
- protein stability index (doa10∆): 3.51 ± 0.27
- protein stability index (pdr5∆): 3.42 ± 0.11
- protein stability index (san1∆): 3.55 ± 0.13
- protein stability index (ubr1∆): 3.32 ± 0.12

Sequence: ENIAQMKPKAEKESDDG [SMC4]
- protein stability index (doa10∆): 3.1 ± 0.26
- protein stability index (pdr5∆): 3.16 ± 0.23
- protein stability index (ubr1∆): 3.74 ± 0.2
